Positions count from the first letter of the chain named.

Data set [1] has as its target T1, human BDCA-2-Fc (hIgG1-Fc-hBDCA-2) (human).
T1 construct: also called huBDCA2-Fc
Kind of data set: SPR (BIAcore), comparison of KD. (In SPR one partner is held on a chip, and binding of the other changes the refractive index at the surface.)

The target in data set [2] is T1, human BDCA-2-Fc (hIgG1-Fc-hBDCA-2). The experiment in a line: ELISA on plate-coated human BDCA2-Fc. The method, then: 100 ul per well of 0.5 μg/ml of human BDCA2-Fc in PBS pH 7.4 was incubated overnight at 4 C. The wells were then washed 3 times with PBST (PBS+0.05% Tween 20) and then blocked with 250 ul 4% Skimmed Milk (Marvel, cat. no. 3023033 Lot no. 7169) in PBS for 120 min at RT. The wells were washed and then incubated with 100 ul per well of humanized mAbs at 3 fold dilutions (from 1 μg/ml to 0.001 μg/ml) in 1% Skimmed Milk PBS buffer at pH 7.4. After 60 min at RT the wells were washed 3 times in PBST and 100 ul of mouse anti-human IgG (anti-CH1-HRP; 1:1000, BD Pharmigen cat. no. 555788) or donkey anti-mouse IgG (anti-mouse IgG-HRP) at 1:5000 dilution (Jackson ImmunoResearch, Cat. no. 715-035-150) in 1% Skimmed Milk PBS was added. Development was with TMB (ThermoFisher, cat. no. 00-4201-56), 100 ul/well and the reaction stopped with 100 μl/well H2SO4 (cat. nr. J/8430/15, lot nr.) and the absorbance read at 450 nm. The EC50 was calculated using Graphpad Prism software. A negative (1% Skimmed Milk/PBS) and positive control (anti-BDCA-2, AC144, Miltenyi Biotec, cat. no. 130-090-690) were utilised in the assay.
Background: In an ELISA, binding on a coated surface is turned into a signal by an enzyme label.

Data set [3] shares this target. Kind of data set: SPR (BIAcore T200), huBDCA2-Fc immobilised on CM5 chip, mAb injected. The method, then:
A BIAcore T200 was used with BIAcore run buffer (HBS-EP) at pH7.4. 692RU of huBDCA2-Fc was immobilized to a CM5 chip (CFJB156) utilising 5 μg/ml of huBDCA2-Fc with the BIAcore EDC/NHS kit according to the manufacturer's instructions. Two-fold dilutions of the humanized mAbs were injected starting at 200 nM down to 3.1 nM with a contact time of 60 s at a flow of 30 or 60 ul/min at 25° C. followed by an off-rate wash for 5 minutes with BIAcore buffer. […] The BIAcore T200 software was used to calculate Ka (1/Ms), Kd (1/s) and the KD (nM).

Data set [4] addresses T2, BDCA-2 (CLEC4C, CD303) on human plasmacytoid dendritic cells (purified pDC or pDC within PBMC) (human, UniProt Q8WTT0 1-213).
T2 sequence: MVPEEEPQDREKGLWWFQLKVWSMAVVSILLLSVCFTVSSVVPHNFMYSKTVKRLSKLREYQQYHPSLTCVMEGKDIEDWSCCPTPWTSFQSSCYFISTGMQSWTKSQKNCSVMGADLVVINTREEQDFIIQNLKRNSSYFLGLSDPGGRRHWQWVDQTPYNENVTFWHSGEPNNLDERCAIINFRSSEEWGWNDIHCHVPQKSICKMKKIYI
The experiment in a line: cell-based or functional assay.

Data set [5] concerns the molecule itself. The experiment in a line: High-Mass MALDI mass spectrometry with chemical cross-linking. The method, then: For the characterization of BDCA2(CLEC4C)/3E5 (variant 12) complexes, the measurements were performed using an Autoflex II MALDI ToF ToF mass spectrometer (Bruker) equipped with a CovalX HM4 interaction module. The CovalX interaction module contains a detecting system designed to optimize detection up to 2 MDa with nano-molar sensitivity. […] In order to characterize CLEC4C we submitted the sample to trypsin, chymotrypsin, Asp-N, elastase and thermolysin proteolysis followed by nLC-LTQ-Orbitrap MS/MS analysis. For the characterization, a nLC Ultimate 3000-RSLC system in line with a LTQ-Orbitrap mass spectrometer (Thermo Scientific) was used. Sample preparation was as follows:
In order to determine the epitope of CLEC4C/3E5 complex with high resolution, the protein complexes were incubated with deuterated cross-linkers and subjected to multi-enzymatic cleavage. After enrichment of the crosslinked peptides, the samples were analyzed by high resolution mass spectrometry (nLC-LTQ-Orbitrap MS) and the data generated were analyzed using XQuest and Stavrox software.

Data set [6] deals with T2, BDCA-2 (CLEC4C, CD303) on human …. Kind of data set: cell-based or functional assay. The source holds these as a separate data set.
Data set [7] has as its target T3, cynomolgus BDCA-2 expressed on transfected U937 cells (cynomolgus, UniProt Q8WTT0 1-213 (human entry)).
T3 construct: also called cell expressed cynomolgus BDCA-2
T3 chain: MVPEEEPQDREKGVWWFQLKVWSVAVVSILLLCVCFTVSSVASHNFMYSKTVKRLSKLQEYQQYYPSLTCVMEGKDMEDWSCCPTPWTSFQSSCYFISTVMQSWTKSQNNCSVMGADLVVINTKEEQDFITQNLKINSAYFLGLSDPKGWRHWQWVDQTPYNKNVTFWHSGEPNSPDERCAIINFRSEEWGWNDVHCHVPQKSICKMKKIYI
The experiment in a line: flow cytometry (MFI titration) on cells expressing cynomolgus BDCA-2. The method, then:
(§1) Cells expressing human and cynomolgus BDCA-2 were resuspend at 2×10⁶ cells/mi in FACS buffer (2% FBS/PBS) and 50 μl of the cell suspension was added per well, in a 96-well V bottom plate. The plate was centrifuge and the supernatant discarded. 12 serial, 2-fold dilutions of mAbs, starting at 50 μg/ml (range 50-0.024 μg/ml), in FACS buffer were prepared and 25 μl of the mAb dilutions added to wells, in triplicate. The plate was then incubated for 60 min at room temperature then centrifuged and washed 3× with 150 μl FACS buffer. To each well was then added 25 μl goat-anti-human PE conjugate (or goat-anti-mouse in the case of AC144), diluted 1:200 in FACS buffer. The plates were incubated for 60 min at room temperature protected from light and centrifuged and washed 3× with 150 μl FACS buffer. 25 μl per well of 2% PFA 2% was added and incubated for 20 min at 4° C., protected from light and analysed on the iQue screener.
(§2) Serial dilutions of the 4 chimeric mAbs (50-0.25 ug/ml) were prepared and incubated with cells expressing human and cynomolgus BDCA-2. After staining, the median fluorescence intensity (MFI) of the cells was measured and the data points of the dilution series were fitted on a sigmoidal curve after normalization to determine the EC50 values.
In general terms: Flow cytometry measures light scatter and fluorescence of single cells or particles in a stream.

Data set [8] concerns the target T4, human BDCA-2 (CLEC4C) expressed on transfected U937 cells (human, UniProt Q8WTT0 1-213).
T4 construct: also called cell expressed human BDCA-2; Q8WTT0
T4 sequence: T2 sequence
Kind of data set: flow cytometry (MFI titration) on cells expressing human BDCA-2. The method, then: as §1, §2

T1 sequence (chain, as listed by the source limits assumed): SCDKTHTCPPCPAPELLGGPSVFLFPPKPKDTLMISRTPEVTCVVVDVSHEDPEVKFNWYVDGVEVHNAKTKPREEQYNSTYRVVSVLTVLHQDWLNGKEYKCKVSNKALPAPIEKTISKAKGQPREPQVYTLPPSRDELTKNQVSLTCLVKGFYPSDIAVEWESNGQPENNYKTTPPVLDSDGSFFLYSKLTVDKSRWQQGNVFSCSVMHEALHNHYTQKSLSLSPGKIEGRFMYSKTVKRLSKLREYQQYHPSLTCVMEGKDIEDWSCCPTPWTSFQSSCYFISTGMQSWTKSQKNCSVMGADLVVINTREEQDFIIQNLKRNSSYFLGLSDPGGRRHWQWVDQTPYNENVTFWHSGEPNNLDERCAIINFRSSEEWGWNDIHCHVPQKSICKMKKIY

B1: 3E05_var12 (antibody, human IgG1, V domains shown)
VH: EVQLVESGGGLVKPGGSLRLSCAASGFTFSSYTMSWVRQAPGKGLEWVAYISSGGGQTYYPDSVKGRFTISRDNAKNSLYLQMNSLRAEDTAVYYCARHDYYEGGLYYAMDYWGQGTLVTVSS
VL: DIVMTQSPDSLAVSLGERATINCKSSQSVDYDGDSSMNWYQQKPGQPPKLLIYAASTLESGVPSRFSGSGSGTDFTLTISSLQAEDVATYYCQQTNEDPPTFGGGTKVEIK
notes: also called 3E05 VL3VH4 (var_12); 3E05VL3VH4 (var_12)
On to B1, for which, in data set [1], the “fold higher affinity than parental wild type 3E05 and AC144” value was > 100 fold. Moreover, the EC50 – broadly, the concentration at which the effect is half-maximal – in data set [2] came to 0.33 nM. Moreover, the dissociation constant (Kd) (usually the equilibrium constant for the complex coming apart) in data set [3] is < 0.01 nM. Moreover, in data set [4], the “IC50, nM; inhibition of IFNα from ODN stimulated healthy donor PBMC” value amounted to 0.1 nM and the “IC90, nM; inhibition of IFNα from ODN stimulated healthy donor PBMC” value came out at 0.85 nM. Further, the binding result in data set [5] is “no binding”. Moreover, in data set [6], the “IC50, ng/ml; inhibition of IFNα from ODN stimulated healthy donor PBMC” value is 14.3 ng/mL and the “IC90, ng/ml; inhibition of IFNα from ODN stimulated healthy donor PBMC” value is 127 ng/mL.

B2: chimeric mAb 3E05 (parental mouse 3E05 VH/VL on human IgG1) (antibody, V domains shown)
VH: EVKLVESGGGLVKPGGSLKLSCAASGFTFSSYTMSWVRQTPEKRLEWVAYISSGGGNTYYPDSVKGRFTISRDNARNTLYLQMSSLRSEDTAMYYCARHDYYDGGLYYAMDYWGQGTSVTVSS
VL: DIVLTQSPASLAVSLGQRATISCKASQSVDYDGDSSMNWYQQKPGQPPKLLICAASTLESGIPARFSGSGSGTDFTLNIHPVEEEDAATYYCQQTNEDPPTFGGGTKLEIK
notes: also called 3E5; Parental 3E05
For the molecule B2, the concentration giving a half-maximal response (EC50) is 2.6 µg/mL in data set [7], 0.3 nM in data set [2] and 1.76 µg/mL in data set [8]. The dissociation constant (Kd) in data set [3] was 0.35 nM.

B3: chimeric mAb 25E06 (antibody, human IgG1, V domains shown)
VH: EVKLVESGGGLVKPGGSLKLSCAASGFTFSSYTMSWVRQTPEKRLEWVAYISGVGGDTYYPDSVKGRFTISRDNARNTLYLQMSSLRSEDTAMFYCARHHYSHYFWYFDVWGAGTTVTVSS
VL: B2 VL with S35G, S36F, C53Y, T57N, T73A, T95S
notes: also called Parental 25E06
Regarding B3, the values for the concentration for a half-maximal effect (EC50) in data set [7] and in data set [8] were 1.35 µg/mL and 0.57 µg/mL, respectively.

B4: chimeric mAb 21E06 (antibody, human IgG1, V domains shown)
VH: EVKLVESGGGLVKSGGSLKLSCEVSGFTFSSYTISWVRQTPEKRLEWVAYISSGGDNAYYPDSVKGRFTISRDNARNTLYLQMSSLRSEDTAMYYCARHLYYGDYFYVMDYWGQGTSVTVSS
VL: B2 VL with S35N, S36C, M37L, N38H, Y40F, C53Y, T57N, T95S
notes: also called Parental 21E06
On to B4, for which the concentration for a half-maximal effect (EC50) in data set [7] came out at 0.92 µg/mL; in data set [8], 0.3 µg/mL.

B5: chimeric mAb 28B01 (antibody, human IgG1, V domains shown)
VH: B3 VH with S31Y, G53S, V54G, G56D, D57N, T58A, K65R, F94Y, H103N
VL: B2 VL with D32A, S36Y, M37V, C53Y, T57N, T95S
notes: also called 28B1; Parental 28B01
Turning to B5, the EC50 in data set [7] turned out to be 0.79 µg/mL; in data set [8], 0.77 µg/mL.

B6: CLEC4C (BDCA-2) protein used for cross-linking / mass spectrometry epitope mapping (receptor)
chain: NFMYSKTVKRLSKLREYQQYHPSLTCVMEGKDIEDWSCCPTPWTSFQSSCYFISTGMQSWTKSQKNCSVMGADLVVINTREEQDFIIQNLKRNSSYFLGLSDPGGRRHWQWVDQTPYNENVTFWHSGEPNNLDERCAIINFRSSEEWGWNDIHCHVPQKSICKMKKIYI
notes: also called BDCA2(CLEC4C)
B6: the binding result in data set [5] was “no binding”.
